Measured values taken from the supplement of paper PMC11908140.

B1: library; numbered along this chain (parent)
chain: MRKPRAAVGSGHRKQAASQEGRQKHAKNNSQAKPSACDGLARQPEEVVLQASVSSYHLFRDVAEVTAFRGSLLSWYDQEKRDLPWRRRAEDEMDLDRRAYAVWVSEVMLQQTQVATVINYYTGWMQKWPTLQDLASASLEEVNQLWAGLGYYSRGRRLQEGARKVVEELGGHMPRTAETLQQLLPGVGRYTAGAIASIAFGQATGVVDGNVARVLCRVRAIGADPSSTLVSQQLWGLAQQLVDPARPGDFNQAAMELGATVCTPQRPLCSQCPVESLCRARQRVEQEQLLASGSLSGSPDVEECAPNTGQCHLCLPPSEPWDQTLGVVNFPRKASRKPPREESSATCVLEQPGALGAQILLVQRPNSGLLAGLWEFPSVTWEPSEQLQRKALLQELQRWAGPLPATHLRHLGEVVHTFSHIKLTYQVYGLALEGQTPVTTVPPGARWLTQEEFHTAAVSTAMKKVFRVYQGQQPGTCMGSKRSQVSSPCSRKKPRMGQQVLDNFFRSHISTDAHSLNSAAQ

Variants of: B1
Experiment: 8OG:A repair function score (normalized; synonymous = 0, nonsense = -1) (normalized log-likelihood score); higher = more repair activity (WT-like)
Settings: with 8OG:A DNA repair reporter (GFP) in HEK-293 MUTYH KO cells
Method: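 Saturation mutagenesis (NNN codon scan) of the MUTYH cDNA (521-aa nuclear isoform NM_001048174.1 / NP_001041639), stably expressed under doxycycline induction in HEK-293 MUTYH knockout cells. Cells were co-transfected with an 8OG:A-bearing GFP repair reporter plus mCherry and sorted 72 h later into GFP+ and GFP− bins, three replicates per tile. The Rosace log2 enrichment (GFP+ vs GFP−) was converted per tile to a normalized function score with synonymous variants centered at 0 and nonsense variants (codons 1-471) at -1; low-abundance variants were removed.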

8OG:A repair function score of substitutions, site by site:
V214: T -0.495 | K -0.957 | I -0.231 | R -1.01 | Y -0.782 | N -0.833 | A -0.504 | C -0.56 | Q -0.911 | H -0.795 | W -0.258 | M -0.207 | G -0.9 | P -1.01 | D -1.02 | S -0.707 | F -0.287 | E -0.927 | L -0.0688
C216: Y -0.886 | T -0.335 | R -0.931 | V -0.649 | D -0.949 | S -0.137 | L -0.469 | N -0.84 | K -0.969 | A -0.252 | H -0.687 | E -0.808 | F -0.905 | M -0.646 | G -0.663 | Q -0.579 | P -0.98 | I -0.57 | W -1
V211: R -1.02 | L -0.586 | H -0.617 | T -0.428 | I -0.0557 | P -1.02 | S -0.531 | Y -0.329 | N -0.806 | M -0.251 | F -0.4 | C -0.265 | K -1 | G -0.791 | W -0.594 | D -0.988 | Q -0.837 | E -0.951 | A -0.477
N210: V -0.927 | K -1.04 | F -1 | G -0.962 | H -0.833 | S -1.03 | R -1.03 | C -0.854 | D -1.03 | E -0.997 | Y -1 | Q -0.95 | M -0.923 | T -1.03 | A -0.876 | W -1.01 | I -1 | P -0.658 | L -0.937
D208: T -1.03 | S -0.987 | M -0.974 | V -0.996 | K -0.994 | Y -1.01 | W -1.02 | R -1.03 | Q -1.01 | P -1.04 | L -1.03 | N -0.984
A212: E 0.196 | T -0.0386 | Q -0.0874 | M -0.344 | H -0.341 | C -0.00168 | I -0.333 | Y -0.62 | F -0.426 | W -0.596 | R 0.0203 | G -0.254 | P -0.961 | D -0.814 | L -0.264 | V -0.0975 | K -0.0378 | S -0.131 | N -0.24
R213: W -1 | L -1.01 | Y -0.997 | A -1.02 | G -1.01 | E -1.03 | S -1.01 | Q -1.02 | C -1.03 | M -1.04 | I -0.997 | D -1.01 | V -1.01 | N -0.963 | F -1.01 | H -1.03 | T -1.01 | K -1 | P -1.03
R217: A -1.02 | E -1.03 | C -1.03 | D -1.02
G209: L -0.534 | T -0.207 | W -0.876 | P -0.887 | Q -0.48 | A -0.0943 | K -0.788 | I -0.359 | H -0.659 | D -0.851 | S 0.0281 | Y -0.757 | E -0.837 | F -0.839 | V -0.00522 | N 0.0546 | C 0.162 | R -0.364
L215: Y -0.0538 | W -0.704 | Q -0.871 | M -0.129 | A -0.788 | I -0.331 | G -0.867 | V -0.573 | D -0.968 | E -0.98 | F -0.325 | P -1.03 | S -0.957 | K -1.02 | R -1.02 | N -0.967 | H -0.901 | C -0.768 | T -0.86
